Tests used:
[1] = target: T1, CTLA4-Ig (human, UniProt P16410 36-161); assay: isothermal titration calorimetry, in solution, 37° C.
T1 construct: also called CTLA4-Fc; not shown: human IgG1 heavy chain Fc region (hinge, CH2, CH3) of vector COSFcLink

[2] = target: T1, CTLA4-Ig; assay: isothermal titration calorimetry, in solution, 44° C.
[3] = target: T2, human CD28 expressed on the cell surface (human, UniProt P10747 19-220); assay: flow cytometry on PCD28.1.s2.1 cells expressing human CD28
T2 construct: whole, on cells; also called CD28 positive cells; PCD28.1.s2.1 cells
Experimental: Non-adherent CD28 expressing cells (PCD28.1.s2.1) were used for this assay format. […] All incubations were carried out on ice. […] After washing twice in binding buffer, bound fusion proteins were detected with a 1:2000 dilution of a goat anti-human polyclonal antibody labeled with FITC (Flourescein isothiocyanate, Southern Biotech).

[4] = target: T1, CTLA4-Ig; assay: isothermal titration calorimetry, Kd at 37° C., measured at 37° C.
[5] = target: T1, CTLA4-Ig; assay: isothermal titration calorimetry at 44° C., Kd corrected to 37° C. by the van't Hoff equation

T1 sequence (P16410 other isoform, or with tags, fused parts or gaps): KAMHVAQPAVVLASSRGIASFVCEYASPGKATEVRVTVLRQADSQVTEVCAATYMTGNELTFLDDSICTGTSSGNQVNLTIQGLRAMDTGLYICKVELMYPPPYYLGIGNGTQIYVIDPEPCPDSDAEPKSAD

Kd [1]: 38 nM
Molar Ratio (CTLA4-Ig per construct) [1]: 0.8
ΔH [1]: -33 kcal/mol
Kd [2]: 71 nM
Molar Ratio (CTLA4-Ig per construct) [2]: 0.79
ΔH [2]: -34 kcal/mol
binding result [3]: no binding
Kd [4]: 40 nM
Kd [5]: 22 nM
B1: CD86-Ig (Fc fusion)
chain: APLKIQAYFNETADLPCQFANSQNQSLSELVVFWQDQENLVLNEVYLGKEKFDSVHSKYMGRTSFDSDSWTLRLHNLQIKDKGLYQCIIHHKKPTGMIRIHQMNSELSVLANFSQPEIVPISNITENVYINLTCSSIHGYPEPKKMSVLLRTKNSTIEYDGIMQKSQDNVTELYDVSISLSVSFPDVTSNMTIFCILETDKTRLLSSPFSIELEDPQPPPDHEPKSADKTHTCPPCP
notes: Mature N-terminus LKIQ-, junction PPPDHepksa; also called B7.2-Ig; monomeric CD86-Ig; not shown: human IgG1 heavy chain Fc region (hinge, CH2, CH3) of vector COSFcLink

From patent US20020147326A1 (GlaxoSmithKline, published 2002)
